In data set [1] the target is T1, MukB (wild type, MukB-His) (Escherichia coli, UniProt P22523 1-1486).
T1 construct: MukB, the SMC protein of Escherichia coli MukBEF; wild type; The end of the tag is read from the printed name 'MukB-His'; The same construct was used with co-purified AcpP or depleted of AcpP by an extended salt gradient on heparin; also called WT MukB; AcpP-depleted MukB; source: E. coli C3013I (NEB), pET vector, purified (TALON, HiTrap Heparin, Superdex 200); not shown: His tag, C-terminal, kept
T1 sequence (looked up): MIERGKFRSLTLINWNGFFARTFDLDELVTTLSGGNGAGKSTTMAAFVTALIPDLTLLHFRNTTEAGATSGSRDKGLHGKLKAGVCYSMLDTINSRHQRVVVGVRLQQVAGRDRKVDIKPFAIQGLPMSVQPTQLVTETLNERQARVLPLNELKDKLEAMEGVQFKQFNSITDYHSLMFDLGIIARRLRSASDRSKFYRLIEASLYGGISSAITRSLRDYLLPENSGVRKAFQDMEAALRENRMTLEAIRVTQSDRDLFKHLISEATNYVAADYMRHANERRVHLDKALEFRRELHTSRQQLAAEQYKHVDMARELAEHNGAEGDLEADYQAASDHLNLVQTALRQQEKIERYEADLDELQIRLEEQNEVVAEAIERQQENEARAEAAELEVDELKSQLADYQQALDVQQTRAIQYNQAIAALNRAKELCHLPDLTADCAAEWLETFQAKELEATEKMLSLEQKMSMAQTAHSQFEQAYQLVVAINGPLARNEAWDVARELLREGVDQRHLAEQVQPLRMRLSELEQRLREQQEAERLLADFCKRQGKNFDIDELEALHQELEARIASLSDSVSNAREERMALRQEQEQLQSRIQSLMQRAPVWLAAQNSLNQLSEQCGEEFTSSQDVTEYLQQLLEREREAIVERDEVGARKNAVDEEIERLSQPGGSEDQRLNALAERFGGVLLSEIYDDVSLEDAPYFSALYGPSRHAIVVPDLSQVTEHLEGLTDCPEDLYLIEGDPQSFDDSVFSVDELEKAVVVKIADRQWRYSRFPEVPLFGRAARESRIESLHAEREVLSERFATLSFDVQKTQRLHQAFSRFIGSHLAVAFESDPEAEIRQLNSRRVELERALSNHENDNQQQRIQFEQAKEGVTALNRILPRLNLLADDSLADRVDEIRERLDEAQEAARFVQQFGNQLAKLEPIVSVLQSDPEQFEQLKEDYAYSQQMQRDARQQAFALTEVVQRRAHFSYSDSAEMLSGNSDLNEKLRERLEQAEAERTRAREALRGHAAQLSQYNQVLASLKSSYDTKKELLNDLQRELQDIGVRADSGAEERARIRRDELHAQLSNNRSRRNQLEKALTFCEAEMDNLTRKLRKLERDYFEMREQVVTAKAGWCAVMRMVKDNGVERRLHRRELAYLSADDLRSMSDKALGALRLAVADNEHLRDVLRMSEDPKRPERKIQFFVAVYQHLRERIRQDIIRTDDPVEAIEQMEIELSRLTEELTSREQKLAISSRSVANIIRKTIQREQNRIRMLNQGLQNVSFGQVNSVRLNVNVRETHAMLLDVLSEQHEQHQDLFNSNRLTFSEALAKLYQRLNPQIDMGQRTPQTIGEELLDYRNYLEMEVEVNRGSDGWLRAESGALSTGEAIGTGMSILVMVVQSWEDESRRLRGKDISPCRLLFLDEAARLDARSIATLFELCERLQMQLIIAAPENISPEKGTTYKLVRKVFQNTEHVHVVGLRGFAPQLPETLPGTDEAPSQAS
Kind of data set: native MS; mixtures of MukB, MukE, MukF and AcpP at various concentrations of MukB; 200 mM ammonium acetate pH 8.0. The following applies: both partners purified.

Data set [2] concerns the molecule itself. The data set is described as above.

B1: MukE (MukE-His) (natural protein, Escherichia coli, UniProt P22524 1-234, looked up)
chain: MSSTNIEQVMPVKLAQALANPLFPALDSALRSGRHIGLDELDNHAFLMDFQEYLEEFYARYNVELIRAPEGFFYLRPRSTTLIPRSVLSELDMMVGKILCYLYLSPERLANEGIFTQQELYDELLTLADEAKLLKLVNNRSTGSDVDRQKLQEKVRSSLNRLRRLGMVWFMGHDSSKFRITESVFRFGADVRAGDDPREAQRRLIRDGEAMPIENHLQLNDETEENQPDSGEEE
notes: MukE, the KITE protein of Escherichia coli MukBEF; The end of the tag is read from the printed name 'MukE-His'; also called KITE protein MukE; source: E. coli C3013I (NEB), pET vector, purified (TALON, HiTrap DEAE FF, Superdex 200)
With B1, the binding result in data set [1] was “binds”.

B2: MukF (His-MukF) (natural protein, Escherichia coli, UniProt P60293 1-440, looked up)
chain: MSEFSQTVPELVAWARKNDFSISLPVDRLSFLLAVATLNGERLDGEMSEGELVDAFRHVSDAFEQTSETIGVRANNAINDMVRQRLLNRFTSEQAEGNAIYRLTPLGIGITDYYIRQREFSTLRLSMQLSIVAGELKRAADAAEEGGDEFHWHRNVYAPLKYSVAEIFDSIDLTQRLMDEQQQQVKDDIAQLLNKDWRAAISSCELLLSETSGTLRELQDTLEAAGDKLQANLLRIQDATMTHDDLHFVDRLVFDLQSKLDRIISWGQQSIDLWIGYDRHVHKFIRTAIDMDKNRVFAQRLRQSVQTYFDEPWALTYANADRLLDMRDEEMALRDEEVTGELPEDLEYEEFNEIREQLAAIIEEQLAVYKTRQVPLDLGLVVREYLSQYPRARHFDVARIVIDQAVRLGVAQADFTGLPAKWQPINDYGAKVQAHVIDKY
notes: MukF, the kleisin of Escherichia coli MukBEF; The end of the tag is read from the printed name 'His-MukF'; also called kleisin MukF; source: E. coli C3013I (NEB), pET vector, purified (TALON, HiTrap DEAE FF, Superdex 200)
As for B2, the binding result in data set [1] and in data set [2] was “binds” in each case.
